Assay [1] concerns the target T1, Purified recombinant human NGF (human, UniProt P01138 122-241, limits assumed, radioiodinated with 125I (lactoperoxidase method) where used as tracer).
T1 construct: also called unlabeled human NGF
Description: displacement binding assays of the two Poros 20HQ peaks.

In assay [2] the target is 7S NGF (complex of 2.5S (β-NGF) and γ NGF). Description: cell-based or functional assay.
The target of assay [3] is T1, Purified recombinant human NGF. Description: competitive binding assay, 125I-NGF on A875 cells; reference TrkAIg1,2. How it is done:
(§1) The binding affinity of ¹²⁵I-NGF to the Ig-like domains of TrkA was determined by a competitive binding assay using the melanoma cell line A875 American Tissue Culture Collection (ATCC) which expresses the NGF receptor p75^NGFR.
(§2) Purified recombinant human NGF was radioiodinated with I¹²⁵ using a lactoperoxidase method and equilibrium binding with [¹²⁵I]-NGF was carried out (Treanor et al., 1991; Neuroscience Letters 121 p73-76). Briefly A875 cells (10⁶ per ml) were incubated with [¹²⁵I]-NGF (0.14 nM) and serial dilutions of unlabeled human NGF (concentration range: 10⁻⁶ M to 1×10⁻¹¹ M), TrkAIg1,2 (concentration range: 4×10⁻⁶ M to 1×10⁻¹¹ M) or TrkAIg2 (concentration range 5×10⁻⁶ M to 1×10 ⁻¹¹ M). Tubes were shaken vigorously at room temperature for 1 hr. 100 μl aliquots were then layered over 200 μl sucrose (0.15 M in binding buffer) in Beckman tubes. After centrifugation (15 seconds at 20,000 g) bound and free [¹²⁵I]-NGF were separated by freezing the tubes in liquid nitrogen and determining the bound [¹²⁵I]-NGF of the cell pellet. Binding reactions were carried out in triplicate. Counts were corrected for background and specific binding was between 85-87% of total binding. The competitive binding assay (FIG. 9) allowed estimation of the binding affinity of [¹²⁵I]-NGF to the recombinant TrkAIg2 protein. […]

The target in assay [4] is NGF (source and species not stated; used in the BiaCore study and on PC12 cells). The assay can be described thus: SPR (BiaCore-X), TrkAIg2 amine-coupled to the chip, NGF 40 nM to 500 nM as analyte, BiaEval 3.0 fit. The method, then:
TrkAIg2 was covalently attached to the surface of the sensor chip by coupling with amine groups on TrkAIg2 to carboxyl groups on the surface using BiaCore Amine Coupling kit and varying concentrations of NGF passed over at a constant flow rate of 20 μl/min for two minutes. Data were collected for a range of NGF concentrations of 1 μM to 1 nM. […] However, data collected for the range 40 nM to 500 nM could be successfully evaluated.
In general terms: Surface plasmon resonance follows binding to a sensor surface in real time, without labels.

For assay [5], the target named is T1, Purified recombinant human NGF. The assay can be described thus: competitive binding assay, 125I-NGF on A875 cells (p75NGFR), numerical fit. The method, then: as §1, §2

T1 sequence (P01138 122-241 limits assumed): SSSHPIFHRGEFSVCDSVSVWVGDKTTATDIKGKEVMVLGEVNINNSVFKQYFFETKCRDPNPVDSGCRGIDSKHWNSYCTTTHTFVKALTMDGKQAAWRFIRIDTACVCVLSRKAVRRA
7S NGF (complex of 2.5S (β-NGF) and γ NGF), sequence (P01139 122-241, one chain of several): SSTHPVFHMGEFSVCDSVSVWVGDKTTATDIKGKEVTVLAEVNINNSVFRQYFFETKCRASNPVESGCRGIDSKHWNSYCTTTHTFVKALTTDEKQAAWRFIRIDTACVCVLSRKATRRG
NGF (source and species not stated; used in the BiaCore study and on PC12 cells), sequence (chain, as listed by the source): as the sequence (P01138 122-241 limits assumed) above

B1: TrkAIg1 (his TrkAIg1; TrkA Ig-like sub-domain 1, amino acids 160-252) (receptor)
chain: MGSSHHHHHHSSGLVPRGSHMLEGVPTLKVQVPNASVDVGDDVLLRCQVEGRGLEQAGWILTELEQSATVMKSGGLPSLGLTLANVTSDLNRKNLTCWAENDVGRAEVSVQVNVSF
notes: Two peaks eluted from Poros 20HQ; both were tested in the displacement assay; also called first immunoglobulin-like domain
In the case of B1, the binding result in assay [1] is listed as “no binding”.

B2: TrkAIg2 (his TrkAIg2; TrkA Ig-like sub-domain 2 together with the proline rich region, amino acids 253-375; first, active peak from Poros 20HQ) (receptor)
chain: MGSSHHHHHHSSGLVPRGSHMPASVQLHTAVEMHHWCIPFSVDGQPAPSLRWLFNGSVLNETSFIFTEFLEPAANETVRHGCLRLNQPTHVNNGNYTLLAANPFGQASASIMAAFMDNPFEFNPEDPIPDTNSTSGDPVEKKDE
notes: The range 253-375 counts on the mature extracellular domain, not on the precursor; Removal of the His tag is not reported; also called TrkIg2; TrkAIg2 domain
In the case of B2, in assay [2], the “NGF-induced plasma extravasation in rat skin, co-injection” value came out at 10 fold excess. The “fold IC50 against TrkAIg1,2” value in assay [3] was 3 fold. This molecule also displayed a Kd in assay [4] of 11.8 nM.

B3: TrkAIg1,2 (the two immunoglobulin-like domains and proline-rich region of TrkA, amino acids 160-375) (receptor)
chain: MGSSHHHHHHSSGLVPRGSHMLEGVPTLKVQVPNASVDVGDDVLLRCQVEGRGLEQAGWILTELEQSATVMKSGGLPSLGLTLANVTSDLNRKNLTCWAENDVGRAEVSVQVNVSFPASVQLHTAVEMHHWCIPFSVDGQPAPSLRWLFNGSVLNETSFIFTEFLEPAANETVRHGCLRLNQPTHVNNGNYTLLAANPFGQASASIMAAFMDNPFEFNPEDPIPDTNSTSGDPVEKKDE
notes: The range counts on the mature extracellular domain; also called TrkAIg1,2 domain
As for B3, in assay [5], the Kd is 3.3 nM.

The Kd is the equilibrium constant for the complex coming apart.
